The results in this text go back to patent publication US20240400641A1 (EMORY UNIVERSITY, published 2024).

Where no end group is shown, it is not given here.

The assay has as its target T1, mouse PD-L1 (mouse, UniProt Q9EP73 19-290).
T1 construct: whole, on cells; Endogenous protein of mouse tumor cell lines; also called PD-L1 on mouse pancreatic cancer KC, Panc02 and KPC cells
Description: peptide-IONP conjugates on KC and Panc02 cells, Prussian blue staining.

T1 sequence (Q9EP73 19-290): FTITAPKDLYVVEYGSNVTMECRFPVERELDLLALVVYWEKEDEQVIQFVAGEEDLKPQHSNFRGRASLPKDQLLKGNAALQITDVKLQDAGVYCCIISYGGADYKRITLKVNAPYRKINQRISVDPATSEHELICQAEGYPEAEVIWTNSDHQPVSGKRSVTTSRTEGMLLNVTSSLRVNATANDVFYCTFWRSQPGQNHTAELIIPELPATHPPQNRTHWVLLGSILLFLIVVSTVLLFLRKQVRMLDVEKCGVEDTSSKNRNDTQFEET

B1: PD-1 (Y) peptide (peptide)
peptide: NWNRLSPSNQTEKQAAPHHHHCGAISLHPKAKIEE
modifications: not fully specified; also: FITC label in competition assay, place not given here
notes: also called PDIY; PD-1 like peptide
Consider B1, for which the binding result is given as “binds”.

B2: PD-1 (Lin) peptide (peptide)
peptide: NWNRLSPSNQTEKQAACGAISLHPKAKIEESPGHHHH
modifications: also: FITC label in competition assay, place not given here, bound via His tag to NTA-Cu on IONPs or NTA-Ni beads
notes: Tested as FITC-labelled free peptide, as IONP conjugate and on NTA-Ni beads; also called PD-1 like peptide; PD-1 Lin-IONP (when conjugated to iron oxide nanoparticles)
B2: the binding result is given as “binds”.
